# Measurements: article PMC6614362
# Assays:
# [1] = target: RsbR (Listeria monocytogenes stressosome component) (L. monocytogenes); test: cryo-EM structure; stressosome assembled from purified RsbR, RsbS and RsbT with 1 mM ADP; 20 µg/ml on Quantifoil grids; maps at 4.48 Å (no symmetry) and 3.38 Å (icosahedral symmetry, turrets masked out)
# [2] = target: RsbS (Listeria monocytogenes stressosome component) (L. monocytogenes); test: SEC; purified RsbR and RsbS mixed, complex taken from Superose 6 void volume, combined with excess RsbT (4 °C, 4 h), Superose 6 in 20 mM Tris HCl pH 8.5, 150 mM NaCl, 1 mM ADP, 1 mM DTT; fractions analysed by SDS-PAGE
# [3] = target: RsbS (Listeria monocytogenes stressosome component) (L. monocytogenes); test: cryo-EM structure; stressosome assembled from purified RsbR, RsbS and RsbT with 1 mM ADP; 20 µg/ml on Quantifoil grids; maps at 4.48 Å (no symmetry) and 3.38 Å (icosahedral symmetry, turrets masked out)
# [4] = target: RsbR:RsbS complex (preformed, purified by gel filtration) (L. monocytogenes); test: SEC; purified RsbR and RsbS mixed, complex taken from Superose 6 void volume, combined with excess RsbT (4 °C, 4 h), Superose 6 in 20 mM Tris HCl pH 8.5, 150 mM NaCl, 1 mM ADP, 1 mM DTT; fractions analysed by SDS-PAGE
substance,measurement,setting,value
RsbR (Listeria monocytogenes stressosome component) (natural protein),stoichiometry N,[1],2
same,stoichiometry N (RsbR per RsbS),[2],2
RsbS (Listeria monocytogenes stressosome component) (natural protein),stoichiometry N,[3],2
RsbT (Listeria monocytogenes stressosome kinase) (enzyme),stoichiometry N (RsbT per RsbS (RsbR:RsbS:RsbT 2:1:1)),[4],1
